The target of assay [1] is T1, type 1 cholecystokinin receptor (CCK1R) (Homo sapiens, UniProt P32238).
T1 construct: gene CCKAR; CHO-CCK1R cells and membranes
T1 sequence (P32238 1-428): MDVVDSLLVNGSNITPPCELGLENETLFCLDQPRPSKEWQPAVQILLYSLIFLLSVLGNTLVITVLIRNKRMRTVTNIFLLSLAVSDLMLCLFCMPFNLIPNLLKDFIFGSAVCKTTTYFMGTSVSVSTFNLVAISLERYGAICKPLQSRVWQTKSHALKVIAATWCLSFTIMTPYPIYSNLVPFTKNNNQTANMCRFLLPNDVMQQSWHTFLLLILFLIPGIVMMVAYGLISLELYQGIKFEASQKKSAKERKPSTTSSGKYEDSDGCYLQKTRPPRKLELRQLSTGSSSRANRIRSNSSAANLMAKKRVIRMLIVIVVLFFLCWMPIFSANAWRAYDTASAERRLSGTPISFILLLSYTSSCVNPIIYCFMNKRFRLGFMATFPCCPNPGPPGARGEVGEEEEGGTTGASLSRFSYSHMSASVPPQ
The assay can be described thus: fluorescence polarization kinetics (slowed alexa488-CCK off-rate); calcium assay fitted with operational allosteric model. It is filed as cell-based. A general note: Polarisation of emitted light reports the rotation of a fluorescent probe.

The target in assay [2] is human type 1 cholecystokinin receptor (CCK1R), CHO-CCK1R cell line (human) (UniProt P32238).
Assay [3] has as its target T2, human type 1 cholecystokinin receptor (CCK1R), CHO-CCK1R cell line (human, UniProt P32238 1-428).
T2 construct: type 1 cholecystokinin receptor, human, wild type; also called human CCK1R; WT CCK1R; source: CHO-K1 cell line stably expressing the receptor (CHO-CCK1R); intact cells and membranes
T2 sequence (looked up): T1 sequence (P32238 1-428)
Description: fluorescence polarisation; alexa488-CCK (3.2 nM) added to CHO-CCK1R membranes in KRH buffer, pH 7.4, 0.2% bovine serum albumin; dissociation started with 1 µM unlabeled CCK-8; absence of Compound 1. Particulars: one partner purified.

The target in assay [4] is Cynomolgus monkey CCK1R (Cynomolgus monkey).
Assay [5] concerns the target T3, rat type 1 CCK receptor (rat), P30551.
T3 chain: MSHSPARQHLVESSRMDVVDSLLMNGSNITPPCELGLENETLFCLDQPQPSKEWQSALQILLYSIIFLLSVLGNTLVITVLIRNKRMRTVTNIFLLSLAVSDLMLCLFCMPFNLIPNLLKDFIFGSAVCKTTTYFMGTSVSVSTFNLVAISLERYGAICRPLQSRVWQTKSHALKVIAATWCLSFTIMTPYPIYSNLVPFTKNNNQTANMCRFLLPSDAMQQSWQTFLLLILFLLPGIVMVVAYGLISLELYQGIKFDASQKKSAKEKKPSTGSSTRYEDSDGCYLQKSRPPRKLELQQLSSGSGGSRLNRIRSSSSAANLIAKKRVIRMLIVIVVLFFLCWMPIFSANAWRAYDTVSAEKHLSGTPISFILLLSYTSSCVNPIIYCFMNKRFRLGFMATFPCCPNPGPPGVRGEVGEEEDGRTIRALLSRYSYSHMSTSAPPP

In assay [6] the target is Cynomolgus monkey CCK1R (Cynomolgus monkey). The assay can be described thus: radioligand binding; radioligand competition-binding assay on intact receptor-expressing cells; radioiodinated D-Tyr-Gly-[(Nle28,31)CCK-26-33] as radioligand, unlabeled CCK as competitor; duplicates, at least three independent experiments.

This is an account of results in article PMC8689142, “Discovery of a Positive Allosteric Modulator of Cholecystokinin Action at CCK1R in Normal and Elevated Cholesterol” (Frontiers in Endocrinology, 2021).

Non-standard residues stand in square brackets, D forms with d. No end group written: not given here. Alexa 488 = Alexa Fluor 488 fluorescent dye; Nle = CCCC[C@H](N)C(=O)O

As to `C=C[C@H]1CN2CC[C@H]1C[C@@H]2CNC(=O)Nc1cccc(C(F)(F)F)c1` [Compound 1, 3-[(1S,2R,4S,5R)-5-ethenyl-1-azabicyclo[2.2.2]octan-2-yl]methyl-1-[3-(trifluoromethyl)phenyl]urea], in assay [1], the Kb was 251 µM.

Take Synthetic CCK-58 (peptide): in assay [2], the pEC50 for CCK, peak intracellular calcium response in CHO cells expressing human CCK1R, + 10 µM Compound 1 amounted to 9.9 and the pEC50 for CCK, peak intracellular calcium response in CHO cells expressing human CCK1R, control worked out at 9.1.

B1: alexa^488-D-Tyr-Gly-[(Nle^28,31)CCK-26-33] (peptide)
chain: {Alexa 488}-[dY]GDY[Nle]GW[Nle]DF
modifications: ends and bridges not checked
By koff is commonly meant a measure of how fast the partners let go of each other. Usually kon stands for the second-order rate constant of association. With B1, in assay [3], the koff turned out to be 0.0217 s⁻¹ and the kon stood at 2.33e+06 M⁻¹ s⁻¹.

B2: Synthetic CCK-26-33 (CCK-8) (peptide)
chain: DYMGWMDF
modifications: not checked
Broadly, the pKi is −log10 of the Ki, conventionally taken in molar units. In the case of B2, in assay [4], the pEC50 for CCK, peak intracellular calcium response in CHO cells expressing Cynomolgus monkey CCK1R, control stood at 11.2. Further, the pEC50 for CCK, peak intracellular calcium response in CHO cells expressing rat CCK1R, + 10 µM Compound 1 in assay [5] is 11.9. Further, in assay [6], the pKi was determined as 8.6.
